Reference: publication PMC5817353, “Iron Sulfur and Molybdenum Cofactor Enzymes Regulate the Drosophila Life Cycle by Controlling Cell Metabolism” (Frontiers in Physiology, 2018)

Biological target: Drosophila Nfs1^Δ1–53/Isd11/IscU complex (Drosophila melanogaster, UniProt Q9VKD3 54-462; O46098 1-92; Q9VHK6 1-154)
Experiment: cell-based or functional assay

Drosophila Nfs1^Δ1–53/Isd11/IscU complex, sequence (Q9VKD3 54-462, stated change not applied, chain 1 of 3): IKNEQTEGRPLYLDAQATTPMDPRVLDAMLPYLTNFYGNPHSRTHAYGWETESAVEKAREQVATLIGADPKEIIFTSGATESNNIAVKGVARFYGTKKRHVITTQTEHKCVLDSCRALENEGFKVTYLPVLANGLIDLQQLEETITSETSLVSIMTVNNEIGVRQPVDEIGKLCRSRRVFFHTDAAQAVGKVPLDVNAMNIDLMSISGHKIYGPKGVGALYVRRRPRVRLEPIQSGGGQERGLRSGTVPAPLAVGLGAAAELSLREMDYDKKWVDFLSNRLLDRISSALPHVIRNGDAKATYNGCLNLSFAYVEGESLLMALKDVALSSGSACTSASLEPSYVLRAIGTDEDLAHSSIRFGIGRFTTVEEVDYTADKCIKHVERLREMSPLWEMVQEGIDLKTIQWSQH
Drosophila Nfs1^Δ1–53/Isd11/IscU complex, sequence (O46098 whole entry, stated change not applied, chain 2 of 3): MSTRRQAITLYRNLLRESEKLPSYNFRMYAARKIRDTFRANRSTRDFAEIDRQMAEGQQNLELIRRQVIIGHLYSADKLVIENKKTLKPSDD
Drosophila Nfs1^Δ1–53/Isd11/IscU complex, sequence (Q9VHK6 whole entry, stated change not applied, chain 3 of 3): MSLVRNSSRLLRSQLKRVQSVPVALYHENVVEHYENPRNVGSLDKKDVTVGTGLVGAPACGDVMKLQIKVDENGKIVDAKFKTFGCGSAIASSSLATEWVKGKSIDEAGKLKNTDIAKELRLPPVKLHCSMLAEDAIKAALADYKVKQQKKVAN

B1: human frataxin (FXN) (natural protein, UniProt Q16595 42-210, looked up)
chain: LRTDIDATCTPRRASSNQRGLNQIWNVKKQSVYLMNLRKSGTLGHPGSLDETTYERLAEETLDSLAEFFEDLADKPYTFEDYDVSFGSGVLTVKLGGDLGTYVINKQTPNKQIWLSSPSSGPKRYDWTGKNWVYSHDGVSLHELLAAELTKALKTKLDLSSLAYSGKDA
L-cysteine desulfurase activity (total sulfide produced, methylene blue) of the IscU/Nfs1^Δ1–53/Isd11 complex on addition of human frataxin, 1:3 [Nfs1]:[FXN], anaerobic, 10 min at 23°C: 6 fold
